Data published in IntAct's records for PubMed 28017832.

B1: Vacuolar protein sorting-associated protein 33B (Homo sapiens), Q9H267 (parent)
chain: MAFPHRPDAPELPDFSMLKRLARDQLIYLLEQLPGKKDLFIEADLMSPLDRIANVSILKQHEVDKLYKVENKPALSSNEQLCFLVRPRIKNMRYIASLVNADKLAGRTRKYKVIFSPQKFYACEMVLEEEGIYGDVSCDEWAFSLLPLDVDLLSMELPEFFRDYFLEGDQRWINTVAQALHLLSTLYGPFPNCYGIGRCAKMAYELWRNLEEEEDGETKGRRPEIGHIFLLDRDVDFVTALCSQVVYEGLVDDTFRIKCGSVDFGPEVTSSDKSLKVLLNAEDKVFNEIRNEHFSNVFGFLSQKARNLQAQYDRRRGMDIKQMKNFVSQELKGLKQEHRLLSLHIGACESIMKKKTKQDFQELIKTEHALLEGFNIRESTSYIEEHIDRQVSPIESLRLMCLLSITENGLIPKDYRSLKTQYLQSYGPEHLLTFSNLRRAGLLTEQAPGDTLTAVESKVSKLVTDKAAGKITDAFSSLAKRSNFRAISKKLNLIPRVDGEYDLKVPRDMAYVFGGAYVPLSCRIIEQVLERRSWQGLDEVVRLLNCSDFAFTDMTKEDKASSESLRLILVVFLGGCTFSEISALRFLGREKGYRFIFLTTAVTNSARLMEAMSEVKA
partner: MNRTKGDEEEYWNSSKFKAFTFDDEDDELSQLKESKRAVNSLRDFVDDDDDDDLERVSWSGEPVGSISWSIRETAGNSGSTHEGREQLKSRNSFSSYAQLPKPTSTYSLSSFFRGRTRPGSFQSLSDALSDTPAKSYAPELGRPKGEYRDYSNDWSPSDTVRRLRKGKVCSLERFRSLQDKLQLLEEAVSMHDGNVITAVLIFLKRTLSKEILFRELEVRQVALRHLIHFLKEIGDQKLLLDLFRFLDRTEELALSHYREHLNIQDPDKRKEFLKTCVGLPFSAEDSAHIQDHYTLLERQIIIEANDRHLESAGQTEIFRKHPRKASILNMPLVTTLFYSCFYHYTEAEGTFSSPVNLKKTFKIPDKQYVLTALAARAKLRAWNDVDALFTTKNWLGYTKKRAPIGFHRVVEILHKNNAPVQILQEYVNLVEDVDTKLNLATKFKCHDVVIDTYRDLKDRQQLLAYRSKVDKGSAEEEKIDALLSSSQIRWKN

Variants of: B1
Details: with spe39_human VIPAS39, Q9H9C1

Variant | effect of a mutation on the interaction
G131E | decreasing interaction strength
